# Laboratory results as given in patent publication US12472269B2, “Liver-specific inducible promoters and methods of use thereof” (ASKBIO INC., priority 2019, dated 2025).
# Experiments:
# Huh7 cells = assay: Luciferase expression from PB1-MinTK construct in Huh7 cells transfected with CAR plasmid, induction by TCPOBOP; format: cell-based, human
# Source text: • Huh7 cells which are a human liver cell line • DPBS: without CaCl2, without MgCl2 (Gibco, 14190-094) • DMEM (Sigma, D6546) • FBS (Sigma, F9665) • Pen-Strep (Sigma, P4333) • Promega Fugene-HD (E2311) • TCPOBOP (Sigma, T2320) • CITCO (Cayman Chemicals Company, 16027) • pcDNA6 plasmid which contains the β-galactosidase gene used as internal control for transfection efficiency (Thermofisher, V22020) • mouse CAR expression plasmid from Jouan et al, 2016 (BioCat GmbH, EX-Z4288-M51-10-GC). This was used as Huh7 is CAR deficient. • β-galactosidase substrate solution (Thermofisher, 75707/75710) • Pierce BCA kit (23225) • LARII (Dual Luciferase Reporter 1000 assay system, Promega, E1980) • EPO ELISA kit (Abcam, ab119522) Method: Day 1 • Cells were seeded onto a 48 well plate at a density of 25,000 cells/300 μl Day 2 • On the day of transfection, DNA to be transfected (CAR plasmid/PB1-MinTK operably linked with luciferase or EPO/pcDNA6 plasmid for internal control) was diluted to a 100 ng/μl stock solution. Per 48 Well Transfection: • 45 ng of DNA (15 ng of each plasmid, pcDNA6, CAR and test plasmid) was mixed with 4.1 μl of Optimem medium. • 0.5 μl of Fusion HD was mixed with 4 μl of Optimem medium. • These 2 solutions were mixed and incubated at room temperature for 15 minutes. • The final solution was then added to the well drop wise. • 3 hrs after transfection, the inducer TCPOBOP was added to the appropriate wells at the indicated concentration. Day 3 • 24 hrs after induction the media was removed from the cells. • The cells were washed once in 300 μl of DPBS • Cells were lysed using 100 μl of passive lysis buffer and incubation with rocking for 15 minutes • The cell debris was pelleted by centrifugation of the plate at max speed in a benchtop centrifuge for 1 min • For luciferase, 10 μl sample was transferred into white 96-well plate and luminescence measured by injection of 50 μl of LARII substrate. • β-galactosidase activity was measured as per manufacturer's instructions (Mammalian β-Galactosidase Assay Kit, 75707/75710, Thermo Scientific) using 25 μl of lysate. 25 μl of lysate was transferred into a microplate well and mixed with 25 μl of β-galactosidase Assay Reagent, equilibrated to room temperature. The mixture was incubated at 37° C. for 30 min and absorbance measured at 405 nm. • Protein concentration was measured as per manufacturer's instructions (Pierce™ BCA Protein Assay Kit, 23225/23227, Thermo Scientific) using 25 μl of lysate. 25 μl of lysate was transferred into a microplate well and mixed with 200 μl of working solution. The mixture was incubated at 37° C. for 30 min, cooled to room temperature and then absorbance measured around 562 nm. The protein concentration was calculated with respect to protein standard curve prepared from assaying standards with known protein concentration.
# Luciferase readouts were normalised to both β-galactosidase and protein concentration in the lysate to produce normalised relative luminometer units (RLUs).
# To compare across experiments the strength of the promoters was compared to CMV-IE promoter which was driving the same gene as the PBREM-containing constructs, which is included in every experiment.
# The PB1-MinTK construct was cloned into the vector pGL4.10 using the KpnI and NcoI restriction sites. This places the promoters directly upstream of the firefly luciferase reporter gene. The PB1-MinTK construct contains the 51 bp enhancer and the MinTK minimal promoter from Herpes Thymidine kinase gene.
# AXOL ARE hepatocytes = assay: Luciferase expression from pAAV constructs in AXOL ARE hepatocytes without CITCO, with CITCO and after CITCO withdrawal; format: cell-based, human; settings: pAAV vector
# Method: Luciferase expression from the PB1-MinTK and PB1-2-MinTK constructs in the pAAV vector in AXOL ARE hepatocytes is inducible by CITCO (1 μM) but reduces after removing CITCO as shown in FIG. 5.
molecule,measurement,setting,value
"PB1-MinTK: promoter: single mouse PBREM element and MinTK minimal promoter, SEQ ID NO: 7 (nucleic acid, PB1-MinTK) DNA: TCTGTACTTTCCTGACCTTGGCACAGTGCCACCATCAACTTGCCTGACACCGATCCGGCCCCGCCCAGCGTCTTGTCATTGGCGAATTCGAACACGCAGATGCAGTCGGGGCGGCGCGGTCCGAGGTCCACTTCGCATATTAAGGTGACGCGTGTGGCCTCGAACACCGAGCGACCCTGCAGCGACCCGCTTAACAGCGTCAACAGCGTGCCGCAGATCTCGAGGAGCTTGGCGAGATTTTCAGGAGCTAAGGAAGCTAAAC",induction of the promoter (luciferase),"Huh7 cells; 50 nM or 150 nM TCPOBOP, 24 hrs after induction",up to 6 fold
same,response of the promoter (luciferase),Huh7 cells; 250 nM TCPOBOP,did not illicit a response
same,luciferase expression as ratio of CMV-IE promoter,"Huh7 cells; TCPOBOP induced, one PBREM element with MinTK",40%
same,luciferase activity from the promoter (leaky expression),Huh7 cells; cells treated with vehicle (DMSO),very little measurable luciferase activity
same,luciferase activity,"Huh7 cells; no CAR transfected, 150 nM TCPOBOP",no measurable activity
same,luciferase expression,Huh7 cells; presence of CAR and 150 nM TCPOBOP,high
same,luciferase expression with CITCO,AXOL ARE hepatocytes; CITCO (1 μM),inducible
same,activity of the promoter after removal of CITCO,AXOL ARE hepatocytes; CITCO withdrawal,almost baseline levels
